In general, stoichiometry N refers to a count of units in the complex or per binding partner.

The results in this text go back to paper PMC8616692.

The target of the test is 3CLpro (chymotrypsin-like cysteine protease, nsp5) of SARS-CoV-2, wild type (SARS-CoV-2). As to the kind of experiment: SEC.

Consider “3CLpro (chymotrypsin-like cysteine protease, nsp5) of SARS-CoV-2, wild type (enzyme)”, for which the stoichiometry N turned out to be 2.
